We go through 1 sequence from the Immune Epitope Database (IEDB).

As usually defined, the pKd is the negative decadic logarithm of the Kd, by convention in mol/L.

pKd: −log10 of the molar value. Bounds are passed on as bounds.

Holding throughout (experiment): IEDB peptide-MHC binding, purified MHC/direct/fluorescence; filed as Kd, often an IC50 or EC50 that approximates it; ≥ and ≤ were set here for values at or beyond the usual limits of such assays
Details in all cases: source organism: Vibrio cholerae V52

Test [1] addresses HLA-B*18:01.
The target of test [2] is HLA-B*57:01.
Test [3] addresses HLA-B*27:03.
The target of test [4] is HLA-A*68:02.
In test [5] the target is HLA-A*02:12.
Test [6] deals with HLA-A*29:02.
Test [7] deals with HLA-A*23:01.
Test [8] deals with HLA-A*02:01.

MGMEQTMSV: the pKd in test [1] is at most 4.70; in test [2], at most 4.70; in test [3], at most 4.70; in test [4], at least 9.00; in test [5], at most 4.70; in test [6], at most 4.70. Besides, the pKd in test [7] and in test [8] was at most 4.70 throughout.
